Experiments:
[1] = target: T1, recombinant GST fusion of the Tie-2 intracellular kinase domain
T1 chain: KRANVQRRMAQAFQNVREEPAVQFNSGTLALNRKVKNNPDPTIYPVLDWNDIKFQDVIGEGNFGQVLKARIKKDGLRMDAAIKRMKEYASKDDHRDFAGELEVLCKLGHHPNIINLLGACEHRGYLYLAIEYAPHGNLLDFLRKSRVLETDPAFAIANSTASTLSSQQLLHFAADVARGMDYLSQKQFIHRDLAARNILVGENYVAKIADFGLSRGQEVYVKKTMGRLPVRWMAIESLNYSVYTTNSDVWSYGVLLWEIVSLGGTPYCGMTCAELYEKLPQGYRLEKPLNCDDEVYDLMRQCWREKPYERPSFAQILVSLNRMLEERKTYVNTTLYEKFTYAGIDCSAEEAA

[2] = target: recombinant GST fusion of the VEGFR2 intracellular kinase domain
[3] = target: full length human Tie-2 receptor
[4] = target: full length human VEGF receptor type 2 (VEGFR2)
Chain of full length human VEGF receptor type 2 (VEGFR2) (chain, as listed by the source): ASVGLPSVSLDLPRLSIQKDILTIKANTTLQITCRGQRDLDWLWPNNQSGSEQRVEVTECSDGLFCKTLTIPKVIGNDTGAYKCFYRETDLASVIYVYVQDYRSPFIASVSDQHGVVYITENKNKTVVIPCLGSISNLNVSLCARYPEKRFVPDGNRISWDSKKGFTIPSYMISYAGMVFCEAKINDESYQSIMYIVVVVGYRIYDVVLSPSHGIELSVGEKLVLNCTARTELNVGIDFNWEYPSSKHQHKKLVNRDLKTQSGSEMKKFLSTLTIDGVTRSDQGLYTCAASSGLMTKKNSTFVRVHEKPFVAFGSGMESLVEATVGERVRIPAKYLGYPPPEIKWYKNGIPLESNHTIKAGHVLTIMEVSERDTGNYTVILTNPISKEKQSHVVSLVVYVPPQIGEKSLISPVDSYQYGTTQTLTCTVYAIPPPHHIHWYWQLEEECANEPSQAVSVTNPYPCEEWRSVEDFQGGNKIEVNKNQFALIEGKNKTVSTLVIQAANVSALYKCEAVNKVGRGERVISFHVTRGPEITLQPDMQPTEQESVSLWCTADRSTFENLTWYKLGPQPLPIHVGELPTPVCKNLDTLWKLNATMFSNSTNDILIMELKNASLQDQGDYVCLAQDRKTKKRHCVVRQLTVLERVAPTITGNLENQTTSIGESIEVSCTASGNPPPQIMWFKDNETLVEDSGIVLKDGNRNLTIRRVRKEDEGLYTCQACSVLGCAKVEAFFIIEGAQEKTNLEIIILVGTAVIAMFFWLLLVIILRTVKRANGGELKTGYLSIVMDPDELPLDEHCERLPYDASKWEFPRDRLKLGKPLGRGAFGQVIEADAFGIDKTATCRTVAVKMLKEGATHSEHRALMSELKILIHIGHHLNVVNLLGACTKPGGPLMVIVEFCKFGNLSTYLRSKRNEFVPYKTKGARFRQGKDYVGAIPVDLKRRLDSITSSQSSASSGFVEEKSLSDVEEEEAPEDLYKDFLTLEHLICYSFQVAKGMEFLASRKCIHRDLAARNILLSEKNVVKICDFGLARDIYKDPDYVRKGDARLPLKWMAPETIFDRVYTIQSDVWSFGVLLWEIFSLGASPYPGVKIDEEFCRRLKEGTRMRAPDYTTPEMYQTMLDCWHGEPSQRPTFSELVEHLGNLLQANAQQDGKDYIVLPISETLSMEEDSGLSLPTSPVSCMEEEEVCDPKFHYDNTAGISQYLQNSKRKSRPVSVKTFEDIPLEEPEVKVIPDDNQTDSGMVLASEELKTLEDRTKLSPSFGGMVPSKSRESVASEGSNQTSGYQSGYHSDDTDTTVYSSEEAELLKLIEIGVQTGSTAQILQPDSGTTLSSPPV

Chain of recombinant GST fusion of the VEGFR2 intracellular kinase domain (chain, as listed by the source): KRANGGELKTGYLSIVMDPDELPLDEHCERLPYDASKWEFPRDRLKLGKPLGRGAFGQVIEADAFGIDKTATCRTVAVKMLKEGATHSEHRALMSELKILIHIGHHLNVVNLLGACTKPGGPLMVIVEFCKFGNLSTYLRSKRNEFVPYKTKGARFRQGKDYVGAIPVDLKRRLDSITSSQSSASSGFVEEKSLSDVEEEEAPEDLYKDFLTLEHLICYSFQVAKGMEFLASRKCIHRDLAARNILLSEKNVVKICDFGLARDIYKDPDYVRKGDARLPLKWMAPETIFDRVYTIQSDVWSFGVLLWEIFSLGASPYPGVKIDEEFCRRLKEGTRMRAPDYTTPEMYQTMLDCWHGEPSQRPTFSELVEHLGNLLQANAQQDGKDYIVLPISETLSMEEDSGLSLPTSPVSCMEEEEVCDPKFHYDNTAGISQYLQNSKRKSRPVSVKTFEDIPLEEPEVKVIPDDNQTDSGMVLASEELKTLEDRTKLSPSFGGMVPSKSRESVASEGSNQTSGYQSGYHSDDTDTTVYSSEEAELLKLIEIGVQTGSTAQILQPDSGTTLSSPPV

Protein	anti-phosphotyrosine western blotting of the bead-bound autophosphorylated kinase domain after 2 hours at 37 C with increasing amounts of recombinant HPTPbeta [1]	anti-phosphotyrosine western blotting of the bead-bound autophosphorylated kinase domain after 2 hours at 37 C with increasing amounts of recombinant HPTPbeta [2]	ligand-induced phosphorylation of the endogenous receptor (anti-phosphotyrosine western blot of immunoprecipitated receptor) in Ang1 stimulated HUVECs [3]	ligand-induced phosphorylation of the endogenous receptor (anti-phosphotyrosine western blot of immunoprecipitated receptor) in VEGFA stimulated HUVECs [4]
recombinant HPTPbeta catalytic domain (protein) GDRPLSVHLNLGQKGNRKTSCPIKINQFEGHFMKLQADSNYLLSKEYEELKDVGRNQSCDIALLPENRGKNRYNNILPYDATRVKLSNVDDDPCSDYINASYIPGNNFRREYIVTQGPLPGTKDDFWKMVWEQNVHNIVMVTQCVEKGRVKCDHYWPADQDSLYYGDLILQMLSESVLPEWTIREFKICGEEQLDAHRLIRHFHYTVWPDHGVPETTQSLIQFVRTVRDYINRSPGAGPTVVHCSAGVGRTGTFIALDRILQQLDSKDSVDIYGAVHDLRLHRVHMVQTECQYVYLHQCVRDVLRARKLRSEQHHHHHH	a dose dependent decrease in the phosphorylation of recombinant VEGFR2 and Tie-2	a dose dependent decrease in the phosphorylation of recombinant VEGFR2 and Tie-2	–	–
full length HPTPbeta protein (splice variant lacking FNIII repeat 5) (protein) EPERCNFTLAESKASSHSVSIQWRILGSPCNFSLIYSSDTLGAALCPTFRIDNTTYGCNLQDLQAGTIYNFKIISLDEERTVVLQTDPLPPARFGVSKEKTTSTGLHVWWTPSSGKVTSYEVQLFDENNQKIQGVQIQESTSWNEYTFFNLTAGSKYNIAITAVSGGKRSFSVYTNGSTVPSPVKDIGISTKANSLLISWSHGSGNVERYRLMLMDKGILVHGGVVDKHATSYAFHGLTPGYLYNLTVMTEAAGLQNYRWKLVRTAPMEVSNLKVTNDGSLTSLKVKWQRPPGNVDSYNITLSHKGTIKESRVLAPWITETHFKELVPGRLYQVTVSCVSGELSAQKMAVGRTFPLAVLQLRVKHANETSLSIMWQTPVAEWEKYIISLADRDLLLIHKSLSKDAKEFTFTDLVPGRKYMATVTSISGDLKNSSSVKGRTVPAQVTDLHVANQGMTSSLFTNWTQAQGDVEFYQVLLIHENVVIKNESISSETSRYSFHSLKSGSLYSVVVTTVSGGISSRQVVVEGRTVPSSVSGVTVNNSGRNDYLSVSWLLAPGDVDNYEVTLSHDGKVVQSLVIAKSVRECSFSSLTPGRLYTVTITTRSGKYENHSFSQERTVPDKVQGVSVSNSARSDYLRVSWVHATGDFDHYEVTIKNKNNFIQTKSIPKSENECVFVQLVPGRLYSVTVTTKSGQYEANEQGNGRTIPEPVKDLTLRNRSTEDLHVTWSGANGDVDQYEIQLLFNDMKVFPPFHLVNTATEYRFTSLTPGRQYKILVLTISGDVQQSAFIEGFTVPSAVKNIHISPNGATDSLTVNWTPGGGDVDSYTVSAFRHSQKVDSQTIPKHVFEHTFHRLEAGEQYQIMIASVSGSLKNQINVVGRTVPASVQGVIADNAYSSYSLIVSWQKAAGVAERYDILLLTENGILLRNTSEPATTKQHKFEDLTPGKKYKIQILTVSGGLFSKEAQTEGRTVPAAVTDLRITENSTRHLSFRWTASEGELSWYNIFLYNPDGNLQERAQVDPLVQSFSFQNLLQGRMYKMVIVTHSGELSNESFIFGRTVPASVSHLRGSNRNTTDSLWFNWSPASGDFDFYELILYNPNGTKKENWKDKDLTEWRFQGLVPGRKYVLWVVTHSGDLSNKVTAESRTAPSPPSLMSFADIANTSLAITWKGPPDWTDYNDFELQWLPRDALTVFNPYNNRKSEGRIVYGLRPGRSYQFNVKTVSGDSWKTYSKPIFGSVRTKPDKIQNLHCRPQNSTAIACSWIPPDSDFDGYSIECRKMDTQEVEFSRKLEKEKSLLNIMMLVPHKRYLVSIKVQSAGMTSEVVEDSTITMIDRPPPPPPHIRVNEKDVLISKSSINFTVNCSWFSDTNGAVKYFTVVVREADGSDELKPEQQHPLPSYLEYRHNASIRVYQTNYFASKCAENPNSNSKSFNIKLGAEMESLGGKCDPTQQKFCDGPLKPHTAYRISIRAFTQLFDEDLKEFTKPLYSDTFFSLPITTESEPLFGAIEGVSAGLFLIGMLVAVVALLICRQKVSHGRERPSARLSIRRDRPLSVHLNLGQKGNRKTSCPIKINQFEGHFMKLQADSNYLLSKEYEELKDVGRNQSCDIALLPENRGKNRYNNILPYDATRVKLSNVDDDPCSDYINASYIPGNNFRREYIVTQGPLPGTKDDFWKMVWEQNVHNIVMVTQCVEKGRVKCDHYWPADQDSLYYGDLILQMLSESVLPEWTIREFKICGEEQLDAHRLIRHFHYTVWPDHGVPETTQSLIQFVRTVRDYINRSPGAGPTVVHCSAGVGRTGTFIALDRILQQLDSKDSVDIYGAVHDLRLHRVHMVQTECQYVYLHQCVRDVLRARKLRSEQENPLFPIYENVNPEYHRDPVYSRH	–	–	adenoviral overexpression of HPTPbeta in endothelial cells decreased in ligand-induced phosphorylation of the endogenous VEGFR2 and Tie-2 receptors	adenoviral overexpression of HPTPbeta in endothelial cells decreased in ligand-induced phosphorylation of the endogenous VEGFR2 and Tie-2 receptors
